Laboratory results published in patent US20150086555A1 (THERACLONE SCIENCES, published 2015).

B1: TCN-554 (5277_M05) (antibody, V domains shown)
VH: QVQLVQSGADLKKPGASVKVSCKASGYTFTDYYIHWVRQAPGQGLEWMGWINPESGDTKYAQKFQGRVTMTRDTSITTAYMELGRLRSDDTAVYYCARDVSTTWSWFAPWGQGTLVTVSS
VL: DIVMTQSPDSLAVSLGERATINCRSSQSIFHNSNNENYLAWYQQKPGQPPKLLIYWASTRESGVPDRFSGSGSGTDFTLTISSLQAEDVAVYFCQQYYNAPLTFGGGTKVEIK
B2: TCN-555 (5246_L16) (antibody, V domains shown)
VH: QVQLVQSGAEVKRPGSSVKVSCTASGGIFRKNAISWVRQAPGQGLEWMGGIIAVFNTANYAQKFQNRVKITADESGNTAYMELSSLTSDDTAVYYCASHPKYFYGSGSYPDFWGQGTLVTVSS
VL: QSALTQPRSVSGSPGQSITISCTGGSSDIGASNSVSWYQQHPGKAPKLVIFDVTERPSGVPHRFSGSKSGNTASLTVSGLQPDDEADYFCCAYGGKYLVVFGGGTKVTVL
B3: TCN-558 (5248_H10b) (antibody, V domains shown)
VH: QVQLVQSGSEVKKPGTSVKVSCTASGSVFTNYGISWVRQAPGQGLEWMGGIIPLFGAAKYAQKFQGRVTITADESTKTVYMELSRLTSKDTAIYFCAKAPRVYEYYFDQWGQGTPVTVSS
VL: EIVMTQFPATLSVSPGERVTLSCRASQSVSNNLAWYQQKPGQPPRLLIYDASTRATGVPAKFSGTGSGTEFTLSISSLQSEDFAVYYCQQYHNWPPSYSFGLGTKLEIK
B4: TCN-548 (5092_P01) (antibody, V domains shown)
VH: QVQLQESGPGLVKPSETLSLTCTVSSGPMSDYYWSWIRQPPGKGLEWIGHVSVSHGGRTKSNPSVMSRVTISVETSKNQFSLKLTSVTAADTAVYYCARLNYYDRSGYHSPDGPSNNWFDPWGQGTLVTVSS
VL: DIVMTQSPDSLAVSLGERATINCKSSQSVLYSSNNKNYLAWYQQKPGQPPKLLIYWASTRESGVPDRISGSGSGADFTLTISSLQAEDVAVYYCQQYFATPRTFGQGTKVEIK
B5: TCN-549 (5092_P04) (antibody, V domains shown)
VH: QVQLVQSGAEVKKPGASVKVSCKASGYTFTGYYMHWVRQAPGQGLEWMGWINPNSGDTNYAQKFQGRVTMTRDTSITTAYMELSSLRSDDTAVYYCARDSPYSSSWSFFDYWGQGPLVTVSS
VL: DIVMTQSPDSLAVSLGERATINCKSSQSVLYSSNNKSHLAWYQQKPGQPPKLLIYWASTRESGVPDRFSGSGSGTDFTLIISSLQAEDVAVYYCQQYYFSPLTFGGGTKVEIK
B6: TCN-544 (5082_A19) (antibody, V domains shown)
VH: QVQLQESGPGLVKPSETLSLTCTVSRGSIGHYFWSWIRQPPGKGLEWIGYISYSGSTKYNPSLRSRVTISVDTSKNQFSLNLNSVTATDTALYYCAREDYDILTGAGPGMEVWGQGTTVTVSS
VL: QSMLTQPPSASGTPGQRVTISCSGSSSNIGSNTVNWFKHLPGTAPKLLIYRNDLRPSGVPDRFSGSKSGTSASLAISGLQSEDEADYYCATWDDSLNGFYVFGTGTKVTVL
B7: TCN-550 (5096_F06) (antibody, V domains shown)
VH: QVQLQESGPGLVKPSETLSLTCTVSGASINSHYWSWIRQPPGKGLEWIGYVYYSGSTTYNPSLKSRVTLSVDTSKNQFSLNLSSVTAADTAFYYCARHPYDVLTGSGDWFDPWGQGTLVTVSS
VL: SYVLTQAPSVSVAPGQTARITCGGNAIGSKKVHWYQHKAGQAPVLVVYDDTDRPSGIPERFSGSNSWSTATLTINRVEAGDEADYYCQVWDFTIDHVVFGGGTKLTVL
B8: TCN-540 (5060_F05) (antibody, V domains shown)
VH: QVQLVQSGGGVVQPGRSLRLSCAASGFTFSSYAMHWVRQAPGKGLEWVAIISYDGNDQYYTDSVKGRFTISRDSSKVYLQMHRLRPEDTAVYYCAKEFETSGYFHGSFDYWGQGILVTVSS
VL: QSALTQPASVSGSPGQSITISCTGTSSDVGGYNYVSWYQQHPGKAPKLLIYEVTNWPSGVSNRFSGSKSGNTASLTISGLQAEDEADYYCSSYAGSSTWVFGGGTRVTVL
B9: TCN-557 (5081_A04) (antibody, V domains shown)
VH: QVQLVQSGAEVKKPGASVKVSCKASGHTFTGYYIHWVRQAPGQGLEWMGWINPDSGATSSAQNFQGRVTMTGDTSSSTAYMELSRLSFDDTAVYYCARVLFTSPFDFWGEGTLVTVSS
VL: QAVVTQEPSLAVSPGGTVTLTCGSSTGAVTRGHYPYWFQQKPGQAPRALIYDSAGNRHSWTPARFSGSLLGGKAALTLSGAQPEDEAEYYCLLSYSGVWVFGGGTKLTVL
B10: TCN-553 (5261_C18) (antibody, V domains shown)
VH: QVQVVQSGTEVKKPGSSVKVSCQTSGGRFMSYAITWVRQAPGQGLEWMGGIVPVFGTANYAQKFQGRVTITTDDSTRTAYMELSSLRSEDTAVYYCGFRYGSGYGFDSWGQGTLVTVSS
VL: EIVLTQSPGTLSLSPGERATLSCRASQSVSSSYLAWYQKKPGQAPRLLIYGASTRATGIPDRFTGSGSGTDFTLSISRLEPEDFAVYYCQHFGTSVFTFGGGTKVEIK
B11: TCN-543 (5081_G23) (antibody, V domains shown)
VH: QVHLVQSGAEVRKPGDSVKVSCKTSGYTFSTYPVAWVRQVPGQGLEWMGWISTYNGNTNFAQNFQGRVTLTTDTTTNTAYMEVRSLKFDDTAVYYCARVEGSYRDFWNNQNRFDPWGQGTLVTVSS
VL: SYVLTQPPSVSVAPGQTARISCGGSNIGGKSVHWYQQKPGQAPVLVVYDDSGRPSGIPERFSGSNSGDTATLTISRVEAGDEADYFCQVWDNFGGVFGTGTKVTVL
B12: TCN-547 (5092_F11) (antibody, V domains shown)
VH: QVQLQESGPGLVKPSQTLSLTCTVSGDSISSVDHYWSWIRQHPVKGLEWIGFMYYSASTYYNPSLKSRVTISTDTSKNQFSLRLSSVTAADTAVYYCARGTCAGDCSLHYYYYGLDVWGQGRTVTVSS
VL: DIQMTQSPSSLSASVGDRVTITCRASQSISSYLNWYQHKPGKAPKVLMYAVSILQSGVPSRFSGSGSGADFTLTISSLQPEDFATYYCQQSYSSPLTFGGGTKVEIK
B13: TCN-552 (5249_I23) (antibody, V domains shown)
VH: QVQVVQSGAEVKKPGSSVRVSCQASGGTFMNYAIIWVRRAPGQGLEWMGGIIPVFPTPNYAQMFQGRVTISTDESRSTSFLELTNLRYEDTAVYYCARRIYHGGNSGFDFWGQGTLVTVSS
VL: EIVLTQSPATLSLSPGERATLSCRASQSVGNYLAWYQQKPGQAPRLLIYDSSNRAPGIPARFSGSGSGTDFTLTISSLAPEDFAVYYCQQRSKWPPMYSFGHGTKLEIK
B14: TCN-545 (5082_I15) (antibody, V domains shown)
VH: QVQLQQWGAGLLKPSETLSLSCAVFGGSFSDYYWTWIRQPPGKGLEWIGEIKHSGRTNYNPSLESRVTISVDTSKNQFSLKLSSVTAADTAIYYCARGTDPDTEGYCRSGSCSAFDFWGQGTLVTVSS
VL: EIVLTQSPGTLSLSPGERATLSCRASHFVNYRSLAWYQQTPGQVPRLLIYGASTRATGIPDRFSGSGSGTDFTLTISRLEPEDFAVYFCQQYGGSPRYTFGQGTRLEIK
B15: Fab fragment of TCN-533 (5256_A17a) (Fab, V domains shown)
VH: QVQLVQSGADVKKPGSSVTVSCKASGGSFSNYGINWVRQAPGQGLEWMGGIIPLINAPNYAPKFQGRVTITADMFSNIVSLQLTSLRTDDTAVYYCARRKMTTAIDYWGQGTLVTVSS
VL: QPVLTQPPSASASLGASVTLTCTLSSAYSNYKVDWYQQRPGKGPRFVMRVGTGGIVGSKGDGIPDRFSVLGSGLNRYLTIKNIQEEDESDYHCGADHGSGSNFVSPYVFGGGTKLTVL
B16: TCN-551 (5243_D01) (antibody, V domains shown)
VH: EVQLVQSGSEVKKPGESLKISCKGSGYSFSNYWIGWVRHMPGKGLEWMGIIYPGDSDTRYSPSFQGQVTMSADKSSSTVYLQWSSLKASDTAIYYCARRGGHSFGYGSGGDTHSEFDSWGQGTLVTVSS
VL: QSVLTQSPSVSAAPGQKVTISCSGSDSNIGDYFVCWYQHLPGKPPQLLIYENNKRPSGIPDRFSGSKSGTSATLGITGIQTGDEADYYCATWDGSLSAWVFGGGTKLTVL

Experiments:
[1] = target: hemagglutinin on live influenza A virus, A/California/4/09 H1N1 (Influenza A virus …); assay: cell-based or functional assay
[2] = target: hemagglutinin on whole influenza A virions, A/Solomon Islands/3/06 H1N1 (Influenza A virus A/Solomon …); assay: cell-based or functional assay
[3] = target: hemagglutinin on whole influenza A virions, A/Wisconsin/67/05 H3N2 (Influenza A virus …); assay: cell-based or functional assay
[4] = target: recombinant trimeric HA of H1N1 A/California/04/09 (Influenza A virus A/California/04/2009 …)

Binder	% Neutralization [1]	further results
B1	0%	–
B2	89%	–
B3	96%	–
B4	0%	% Neutralization [2]: 0%; % Neutralization [3]: 96%
B5	0%	% Neutralization [2]: 0%; % Neutralization [3]: 100%
B6	0%	–
B7	0%	–
B8	0%	–
B9	10%	% Neutralization [2]: 7%; % Neutralization [3]: 0%
B10	83%	–
B11	0%	–
B12	0%	% Neutralization [2]: 0%; % Neutralization [3]: 88%
B13	81%	–
B14	0%	–
B15	–	Kd [4]: 0.129 nM; koff [4]: 8.2e-05 s⁻¹; kon [4]: 635000 M⁻¹ s⁻¹
B16	74%	–
